Results: the supplement of paper PMC12042874
± gives the uncertainty stated by the source.

Experiment: amyloid nucleation score (Sup35N fusion, yeast selection) (log enrichment); library NNK3; higher = more nucleation; inactive = no reads after selection
Summary of the method: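 Output and input plasmid inserts were sequenced by Illumina after psi-negative yeast carrying Sup35N fused to peptides of 20 random codons had been induced 24 hours with 100 μM copper sulfate and grown 7 days at 30°C on medium lacking adenine and uracil. The nucleation score is the DiMSum log enrichment of output over input reads, centred on the mode score of non-aggregating sequences. Sequences with under 100 input reads were excluded.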

Substance | amyloid nucleation score
MTYAVCGYSIFHKITRTRFG | inactive
LLPKVLLP | inactive
CVWML | inactive
TISYMWRLNGWRSNRAFGSI | inactive
SGRIRVSKSSTGKSLSTSII | inactive
VETSCGRMHVLHLTGSGYSM | inactive
SLDKSMSGKRSLVRADSTLS | -0.046 ± 0.88
QQMGYGKADSMFTSLVVYTM | inactive
VQLLDLKILIIDSVDSKYVC | inactive
GIGCDLFRCADTRWIVLPSM | inactive
WGSLMFRVYTKMFEALERVL | inactive
CKSSWDVVMSSVSDWFWDGA | inactive
IVSLALSFFLDHSQVFCLNS | 1.36 ± 0.15
WVMCFVAWCSAFLRTNFIDM | inactive
RVCLL | -0.539 ± 1.4
YRNSC | inactive
GIMMSD | inactive
CRYDKSSLDY | inactive
WVDFTTWLKFVFRSSIHYLL | 0.012 ± 0.68
DVNIRSSGDNTIAFKYYTMK | 0.14 ± 0.38
VATHTSASHLRS | inactive
WVCPCKSGMSQNWRFYNPSR | inactive
YFEVSLIRLYHEKTTTRMVY | inactive

Substance | amyloid nucleation score
VLTVVAKAWFPVFRPTWFLL | inactive
DSTSLKIGRNAMSHHKSNPC | 1.09 ± 0.11
NDFVRSADKDFGSDRFSNVV | inactive
QVCPTLWYEVMCLN | inactive
WSLPSRLIRDVGSSWIYFCL | inactive
GGDSPNDARRFFNFHIYNIW | 2.05 ± 0.08
DWGTASSSTVGFEQSSDKVF | inactive
ASWFYNIKKLNCCHFVQFAD | 1.64 ± 0.09
SILSPYLV | inactive
WFAWIH | inactive
FLTDASWGSIFWKFLRASFV | 0.621 ± 0.14
TFFEVGRQYELAVGKSRSSM | inactive
IYSNSLACDRSGFFKASSSQ | -0.998 ± 1.2
ASMYIMFTTVNKILFIEISD | 1.69 ± 0.056
RQTTYHGGKWLCSSVSGMYN | inactive
YYCDLRSYIRSPG | inactive
TSLFGIPQCRFRVRSWNDVV | inactive
NFLYWHRWVVWSSMSSYRKP | -0.348 ± 0.63
RHYKLGGSGTCDVSYGSCYD | inactive
HRSISLRLYWNIHVKCFLTY | inactive
ASPYTGDWDTVMC | inactive
SRKCWAHKSIDVEVATSSAK | inactive
SEPRWSISDYWTKSVDMVLW | 1.07 ± 0.2

Substance | amyloid nucleation score
GLFFW | -0.669 ± 0.74
LGNGSLVIG | 0.033 ± 0.27
LSWFIYWDKIRGWSKMTIGQ | inactive
QSLIEPSD | inactive
VVLGADGRLPF | inactive
VPWSLCDD | 0.508 ± 0.12
WGMLRTTT | -0.567 ± 1.5
SLVIQKSFRGDGLRVRHGLQ | inactive
VDLWYIFGPSPYATCFVLLV | inactive
DPWDPYFNLRVSYPFKYYLS | inactive
RANRQQGVGTKQREGHNTVG | inactive
KVLLWPSWFK | inactive
YRGWLNPEYHRLVN | 0.008 ± 0.85
VRFVLDRIACLVGVYIYFWG | inactive
SDIIM | inactive
LSNRGLIYHEGTRICATYRE | 0.719 ± 0.22
SSCRTRC | -0.405 ± 0.76
SISCKKVGGSKASQRPYKA | inactive
PVTFSCYNTLACIKLYYGNV | 2.56 ± 0.066
GCKRSSGKRFLCRGAPCDEW | inactive
KMLNYM | inactive
VTCWGWSFAGGRHCQVEAGV | -0.456 ± 0.96
HMVSTDVTENLWFRQ | inactive

Substance | amyloid nucleation score
PGFLGVPTACPLVSYDAVYP | inactive
VAMVSGIG | inactive
FELPSVKGGCILPSQILP | -0.517 ± 0.73
TCTAFQMHI | 0.007 ± 0.68
VTVQK | inactive
YRIVLIFCEISNAMGVVQTS | inactive
GRVPLPCICDRWYYLEGWEV | -0.034 ± 0.96
SSLLKFDFPVLPCHDLRLAL | inactive
GKCRQGYTRMWHNYMLMGIL | inactive
FVSLALGFGILSFYKDRLWD | 0.598 ± 0.33
YTRGTWS | inactive
WTGFFCNAVKTTTGFNALFL | inactive
LTASYSFVTTVGYSGLDLKV | inactive
GFTRFFYLSRLMVGNMI | inactive
KYVRVLHCIDLFRSSLSHIG | inactive
LFMLGQLLTWDFHALSSGYV | 0.523 ± 0.19
KWFRHFHI | inactive
QLINWFRSDDLSLTAVKRKW | 0.596 ± 0.19
RPFLCYLTAPASMNNTLNQV | inactive
LNSTTCLTAGWIGNAFIACN | inactive
LGFFSSSKLLVGGASASIVS | inactive
IRQGNVYK | inactive
SLVSGLRCVWLMFVSNGHQK | inactive

Substance | amyloid nucleation score
VGYAKYPSNRVRIYRGFENV | inactive
LRSFQWVIVTMPLTRIRSDK | inactive
FASYYHTVDRADFDDLDPAN | inactive
SYSKVCRSKRQI | 0.185 ± 0.71
FWVVISLMSSRVTVASDDHI | inactive
KMKIT | inactive
FSLWEHPVKIMCLFVYVACG | inactive
FYVPVYGERV | inactive
LHQSSTGLSC | inactive
AGCIGFNVFEH | inactive
CPYSFEAAEYFRYGRVGYFT | inactive
FTIVTQCEPTRLSCISDNIR | inactive
VDTILSNKVYVRAPPKRGSK | inactive
QQHAVR | inactive
VGQYGRFDTSQFCVFVVGE | inactive
CLLRSSCGWMCLRTGTHCVV | 0.729 ± 0.25
VWGLKFTRFVNTQLRRYPTL | inactive
NQARHRSSIRRCG | inactive
FRYRLWAMRDVKHSYDFSLW | inactive
IVQTLYNLAAVHSTWAIRFQ | -0.142 ± 0.4
FICVAIGTFCFIEMMHLIGR | 1.23 ± 0.086
PVLGYAECIYKMYKSSQVSW | inactive
VNENLTGFIGV | inactive

Substance | amyloid nucleation score
RATKVDVRGGVA | -0.911 ± 1.5
SLCFRSIINIGFFK | 2.15 ± 0.056
ESCGRSQHPKEAKELESGAG | inactive
IHFMCMWVSNWYVLLVLKE | inactive
NRIMGVGLY | inactive
THRDYLMVRYCGSCHVEMVS | inactive
VRDCTTDTQWERWVETLSPS | inactive
DCDQVPI | inactive
RKTRDSCTMGSNTTWRVIFC | 0.158 ± 0.49
LSSMWWLVRFYNFAF | inactive
ASRSDCTRYIMTTMIWWHFP | inactive
YWLNK | inactive
FYSCGNDAASMLFRLTSGGI | inactive
LFGNSNRSGCSSLRQIGCLC | inactive
TKYFRSNNPFHLVYTYIYLT | inactive
VLFAKRLDLTCVFLFIGRVW | inactive
KFHWWDTCTDVKSRLKVDVE | inactive
CYNGTLGCGYRVLIRVSGSW | inactive
VINRST | 0.979 ± 0.11
AEFYERLPFDIPLHSYFNAW | inactive
RKWMHMDASVCVTIYWDAGL | 0.38 ± 0.4
PDLDYFMIHA | inactive
KVVNGVRCKKSQGLI | inactive

Substance | amyloid nucleation score
CRHPTGKACELCELACFN | inactive
KWVKPRVVTQKR | inactive
AVECSDRTTARWLNVTYAYF | inactive
FRNNRRRAVMCSGFMFRFNF | inactive
IYSIKSV | -0.357 ± 0.68
FFFTSKSLGPVTLTLISVSD | inactive
AIYRIWCYGA | -0.088 ± 0.9
PCPSEFDLSGRYRAAWVRCS | inactive
WPAVEKSLRRECFIVLRPFG | inactive
HSRVWGKYSGSLPGKM | inactive
HIRFWSDNRT | 0.468 ± 0.2
IVKVLNGFKTRVSSVCVTNG | inactive
RGFAVSF | -0.678 ± 0.89
GCLVRCDFVSQCLNWDG | inactive
TVIRRLYCLNGLVANTSFAV | inactive
MFNSFTNWLRQDQCRTIIGS | inactive
LIGNTSGMILHSTITDEAWL | inactive
WRDRNF | 1.3 ± 0.15
FHDVMKGGI | inactive
WVVPSWCHSFPLMIIKRTCC | inactive
RLCSKRVKSTDGGSEHRMSW | inactive
NAMGTFSMGDI | inactive
SLMTVRVNHK | 0.621 ± 0.2
